Results on eleven molecules are retold here after patent publication US8673306B2, “Compositions and methods of use for antibodies of dickkopf-1” (Novartis AG, priority 2006, dated 2014).

Marks after values point to notes of the source that are not given here.

T1: DKK1/LRP6 binding on cell surface (Homo sapiens, UniProt O94907)
T1 construct: made in house; LRP6 and MESD transiently transfected into HEK293T
T1 sequence (O94907 32-266): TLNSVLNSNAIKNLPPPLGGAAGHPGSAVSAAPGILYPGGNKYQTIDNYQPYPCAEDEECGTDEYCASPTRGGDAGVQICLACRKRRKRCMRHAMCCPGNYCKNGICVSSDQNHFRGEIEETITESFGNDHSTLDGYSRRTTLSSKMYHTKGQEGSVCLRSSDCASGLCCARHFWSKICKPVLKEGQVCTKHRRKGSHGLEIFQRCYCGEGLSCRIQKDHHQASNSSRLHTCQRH

T2: human recombinant, biotinylated DKK1 (Homo sapiens, UniProt O94907)
T2 sequence (O94907 32-266): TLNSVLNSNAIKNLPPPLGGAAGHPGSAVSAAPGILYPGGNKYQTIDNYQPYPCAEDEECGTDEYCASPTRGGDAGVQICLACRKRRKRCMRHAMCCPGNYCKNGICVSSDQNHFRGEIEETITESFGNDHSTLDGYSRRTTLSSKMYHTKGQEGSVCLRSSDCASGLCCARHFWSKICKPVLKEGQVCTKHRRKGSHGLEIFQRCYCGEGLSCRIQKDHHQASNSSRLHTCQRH

B1: MOR04910: affinity-optimized Fab from MOR04461; VH SEQ ID NO: 11, VL SEQ ID NO: 30; also used as MOR4910 IgG (antibody, listed as Homo sapiens, V domains shown)
VH: QVQLVESGGGLVQPGGSLRLSCAASGFTFSSYWMSWVRQAPGKGLEWVSGISYSGSNTHYADSVKGRFTISRDNSKNTLYLQMNSLRAEDTAVYYCARMGIDLDYWGQGTLVTVSS
VL: DIALTQPASVSGSPGQSITISCTGTSSDVGGFNYVSWYQQHPGKAPKLMIHDGSNRPSGVSNRFSGSKSGNTASLTISGLQAEDEADYYCQSWDVSPITAVFGGGTKLTVLGQ
B2: MOR04954: affinity-optimized Fab from MOR04470; VH SEQ ID NO: 18, VL SEQ ID NO: 37 (antibody, listed as Homo sapiens, V domains shown)
VH: QVQLVESGGGLVQPGGSLRLSCAASGFTFSSYWMSWVRQAPGKGLEWVSVIEHKDKGGTTYYAASVKGRFTISRDNSKNTLYLQMNSLRAEDTAVYYCARHGIDFDHWGQGTLVTVSS
VL: DIALTQPASVSGSPGQSITISCTGTSSDLGGYNYVSWYQQHPGKAPKLMIYDVNNRPSGVSNRFSGSKSGNTASLTISGLQAEDEADYYCQSYASGNTKVVFGGGTKLTVLGQ
B3: MOR04907: affinity-optimized Fab from MOR04456; VH SEQ ID NO: 8, VL SEQ ID NO: 27 (antibody, listed as Homo sapiens, V domains shown)
VH: QVQLVESGGGLVQPGGSLRLSCAASGFTFNNYGMTWVRQAPGKGLEWVSGISGSGSYTYYADSVKGRFTISRDNSKNTLYLQMNSLRAEDTAVYYCARTIYMDYWGQGTLVTVSS
VL: DIVLTQSPATLSLSPGERATLSCRASQNLFSPYLAWYQQKPGQAPRLLIYGASNRATGVPARFSGSGSGTDFTLTISSLEPEDFAVYYCQQYLSLPTTFGQGTKVEIKRT
B4: MOR04914: affinity-optimized Fab from MOR04470; VH SEQ ID NO: 14, VL SEQ ID NO: 33 (antibody, listed as Homo sapiens, V domains shown)
VH: QVQLVESGGGLVQPGGSLRLSCAASGFTFSSYWMSWVRQAPGKGLEWVSVISSDSSSTYYADSVKGRFTISRDNSKNTLYLQMNSLRAEDTAVYYCARHGIDFDHWGQGTLVTVSS
VL: DIALTQPASVSGSPGQSITISCTGTSSDLGGYNYVSWYQQHPGKAPKLMIYDVNNRPSGVSNRFSGSKSGNTASLTISGLQAEDEADYYCQSYTYTPISPVFGGGTKLTVLGQ
B5: MOR04921: affinity-optimized Fab from MOR04461; VH SEQ ID NO: 12, VL SEQ ID NO: 31 (antibody, listed as Homo sapiens, V domains shown)
VH: QVQLVESGGGLVQPGGSLRLSCAASGFTFSSYWMSWVRQAPGKGLEWVSGISYSGSNTHYADSVKGRFTISRDNSKNTLYLQMNSLRAEDTAVYYCARMGIDLDYWGQGTLVTVSS
VL: DIALTQPASVSGSPGQSITISCTGTSSDVGGFNYVSWYQQHPGKAPKLMIHDGSNRPSGVSNRFSGSKSGNTASLTISGLQAEDEADYYCQTWATSPLSSVFGGGTKLTVLGQ
B6: MOR04456: parental HuCAL GOLD anti-DKK1 Fab; VH SEQ ID NO: 4, VL SEQ ID NO: 23 (antibody, listed as Homo sapiens, V domains shown)
VH: QVQLVESGGGLVQPGGSLRLSCAASGFTFNNYGMTWVRQAPGKGLEWVSGISGSGSYTYYADSVKGRFTISRDNSKNTLYLQMNSLRAEDTAVYYCARTIYMDYWGQGTLVTVSS
VL: DIVLTQSPATLSLSPGERATLSCRASQNLFSPYLAWYQQKPGQAPRLLIYGASNRATGVPARFSGSGSGTDFTLTISSLEPEDFATYYCQQYGDEPITFGQGTKVEIKRT
B7: MOR04461: parental HuCAL GOLD anti-DKK1 Fab; VH SEQ ID NO: 5, VL SEQ ID NO: 24 (antibody, listed as Homo sapiens, V domains shown)
VH: QVQLVESGGGLVQPGGSLRLSCAASGFTFSSYWMSWVRQAPGKGLEWVSGISYSGSNTHYADSVKGRFTISRDNSKNTLYLQMNSLRAEDTAVYYCARMGIDLDYWGQGTLVTVSS
VL: DIALTQPASVSGSPGQSITISCTGTSSDVGGFNYVSWYQQHPGKAPKLMIHDGSNRPSGVSNRFSGSKSGNTASLTISGLQAEDEADYYCSTWDMTVDFVFGGGTKLTVLGQ
B8: MOR04470: parental HuCAL GOLD anti-DKK1 Fab; VH SEQ ID NO: 6, VL SEQ ID NO: 25 (antibody, listed as Homo sapiens, V domains shown)
VH: QVQLVESGGGLVQPGGSLRLSCAASGFTFSSYWMSWVRQAPGKGLEWVSVISSDSSSTYYADSVKGRFTISRDNSKNTLYLQMNSLRAEDTAVYYCARHGIDFDHWGQGTLVTVSS
VL: DIALTQPASVSGSPGQSITISCTGTSSDLGGYNYVSWYQQHPGKAPKLMIYDVNNRPSGVSNRFSGSKSGNTASLTISGLQAEDEADYYCQSYASGNTKVVFGGGTKLTVLGQ
B9: MOR04454: parental HuCAL GOLD anti-DKK1 Fab; VH SEQ ID NO: 2, VL SEQ ID NO: 21 (antibody, listed as Homo sapiens, V domains shown)
VH: QVQLVESGGGLVQPGGSLRLSCAASGFTFSNYGLHWVRQAPGKGLEWVSSISYYGSSTYYADSVKGRFTISRDNSKNTLYLQMNSLRAEDTAVYYCARDGSHMDKPPGYVFAFWGQGTLVTVSS
VL: DIQMTQSPSSLSASVGDRVTITCRASQGIKNYLNWYQQKPGKAPKLLIGAASSLQSGVPSRFSGSGSGTDFTLTISSLQPEDFATYYCLQYYGMPPTFGQGTKVEIKRT
B10: MOR04455: parental HuCAL GOLD anti-DKK1 Fab; VH SEQ ID NO: 3, VL SEQ ID NO: 22 (antibody, listed as Homo sapiens, V domains shown)
VH: QVQLVESGGGLVQPGGSLRLSCAASGFTFSSYGMSWVRQAPGKGLEWVSGISGSGSYTYYADSVKGRFTISRDNSKNTLYLQMNSLRAEDTAVYYCARHYMDHWGQGTLVTVSS
VL: DIQMTQSPSSLSASVGDRVTITCRASQDISNYLHWYQQKPGKAPKLLIYGASNLQSGVPSRFSGSGSGTDFTLTISSLQPEDFAVYYCQQYDSIPMTFGQGTKVEIKRT
B11: MOR04516: parental HuCAL GOLD anti-DKK1 Fab; VH SEQ ID NO: 7, VL SEQ ID NO: 26 (antibody, listed as Homo sapiens, V domains shown)
VH: QVQLVQSGAEVKKPGESLKISCKGSGYSFTNYYIGWVRQMPGKGLEWMGIIYPTDSYTNYSPSFQGQVTISADKSISTAYLQWSSLKASDTAMYYCARGIPFRMRGFDYWGQGTLVTVSS
VL: DIVLTQPPSVSGAPGQRVTISCSGSSSNIGSSFVNWYQQLPGTAPKLLIGNNSNRPSGVPDRFSGSKSGTSASLAITGLQSEDEADYYCASFDMGSPNVVFGGGTKLTVLGQ

One data set deals with T1, DKK1/LRP6 binding on cell surface. Put plainly: DKK1-GFP binding to LRP6 on HEK293T cell surface, fluorescence microscopy. Format: cell-based. The following applies: HEK293T transfected with LRP6 and MESD. Here is the method: However, upon co-transfection of LRP6 with a surface trafficking chaperone protein, MESD, GFP-tagged DKK1 can be detected on the cell surface, illustrating the specific nature of the DKK1/LRP6 interaction.
The ability of MOR04910 to inhibit DKK1/LRP6 binding on cell surface is measured by fluorescence microscopy. HEK293T cells are either mock transfected and transiently transfected with plasmids encoding LRP6 and MESD. Cells are incubated with DKK1-GFP conditioned medium together with anti-lysozyme FAb or anti-DKK1 FAb MOR04910 for 1 hour at 37° C., and examined by fluorescence microscopy. GFP fluorescence reflects DKK1-GFP binding to overexpressed LRP6 on the plasma membrane.
As to B1, the “inhibition of DKK1/LRP6 binding on cell surface” value is given as “specifically blocks this interaction”.

Another data set addresses T2, human recombinant, biotinylated DKK1. Put plainly: ELISA binding of matured Fabs in presence of 50% human serum. The following applies: Fab 1 μg/ml. Here is the method:
Binding specificity of the matured Fabs in the presence of 50% human serum (HS) is determined. Serial dilutions of human recombinant, biotinylated DKK1 in TBS are Coated onto Neutravidin microtiter plates for 2 h at room temperature, from 8 ng DKK1 per well to a concentration of 125 ng DKK1 per well. After coating of the antigen, wells are blocked with TBS/0.05% Tween (TBS-T) supplemented with 1% BSA for 1 h at room temperature. Purified Fabs described above are diluted either in TBS/4% BSA or TBS/50% HS at a final concentration of 1 μg/ml, added to the coated and blocked wells and the plates are incubated for 1 h at room temperature. For detection, an anti-FLAG alkaline phosphatase (AP)-conjugated antibody (1:5000 dilution in TBST) and the fluorogenic substrate AttoPhos (Roche) are used. After each incubation, the wells of the microtiter plates are washed with TBST five times, except after the final incubation step with the labeled secondary antibody when wells are washed three times.
The fluorescence is measured in a TECAN Spectrafluor plate reader. Table 8 summarizes the binding activity of the optimized anti-DKK1 Fabs in presence of 50% human serum compared to binding activity in 4% BSA, which ranges from 83% to 100%. The median value is found to be 93%, thus the anti-DKK1 Fabs are found to fully bind to target in the presence of human serum.
(In general: An ELISA detects its analyte on a solid surface through an enzyme-linked reagent.)
Regarding B2, the “Binding activity w/50% Human serum vs 4% BSA (%)” value is >83* %.

As to B3, the “Binding activity w/50% Human serum vs 4% BSA (%)” value is given as >83* %.

Turning to B4, the “Binding activity w/50% Human serum vs 4% BSA (%)” value is recorded as 83* %.

As for B5, the “Binding activity w/50% Human serum vs 4% BSA (%)” value is given as 93* %.

System in a further data set: not listed separately
Nature of the data set: Fab stability and aggregation (size exclusion chromatography). The data set is classed as physicochemical. The following applies: Fab after purification.
For B6, the Size exclusion chromatography entry is “# (monomeric portion >90%)”.

As for B7, the Size exclusion chromatography result is “# (monomeric portion >90%)”.

Consider B8, for which the Size exclusion chromatography result is “# (monomeric portion >90%)”.

Consider B9, for which the Size exclusion chromatography result was “# (monomeric portion >90%)”.

As to B10, the Size exclusion chromatography entry is “# (monomeric portion >90%)”.

With B11, the Size exclusion chromatography result is reported as “# (monomeric portion >90%)”.
